Data from the supplement of paper PMC9732359.
± gives the uncertainty stated by the source.

Assay: protein stability index of a GFP-peptide fusion (yeast GPS) (PSI 1-4); higher = more stable; sorted into four equal gates, so the index is relative within each strain
Summary of the method: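 Peptides tiling yeast proteins in 17-residue segments were fused downstream of GFP, with Cherry expressed from the same plasmid. As a pooled library in yeast, mid-log cultures grown in leucine-free medium were sorted into four equal gates by GFP/Cherry fluorescence ratio. Gate plasmids were PCR-amplified and Illumina-sequenced, and barcodes linked reads to strains. Each peptide received a protein stability index equal to the sum of each gate's read frequency times its gate number.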

| Sequence | protein stability index (doa10∆) | protein stability index (pdr5∆) | protein stability index (san1∆) | protein stability index (ubr1∆) |
| --- | --- | --- | --- | --- |
| NASDALKGRVVEVCLAD [RPS1B] | 3.34 ± 0.069 | 3.33 ± 0.057 | 3.12 ± 0.051 | 3.03 ± 0.054 |
| YNNRKCWPKDSRMRLIR [PRP8] | 2.05 ± 0.09 | 2.13 ± 0.12 | 2.19 ± 0.11 | 2.64 ± 0.14 |
| YPEDKKTQQNEKSENGE [RPN3] | – | – | 3.22 ± 0.041 | 3.13 ± 0.12 |
| MLGIRSSVKTCFKPMSL [RIP1] | 2.9 ± 0.074 | 3.05 ± 0.079 | 2.83 ± 0.057 | 2.9 ± 0.052 |
| FKNMGNTCYLNATLQAL [UBP6] | 1.8 ± 0.083 | 1.92 ± 0.083 | 1.55 ± 0.12 | 1.83 ± 0.071 |
| GVDDQILATNSLRILAK [YJL039C/NUP192] | 3.14 ± 0.13 | 3.08 ± 0.08 | 3.12 ± 0.069 | 3.24 ± 0.076 |
| KKHLKRLAAPHHWLLDK [RPS4A] | 2.78 ± 0.14 | 2.58 ± 0.078 | 3.18 ± 0.08 | 3.01 ± 0.072 |
| RFRKAQCPIIERLTNSL [RPS5] | 2.32 ± 0.2 | 2.82 ± 0.26 | – | 2.07 ± 0.21 |
| QAQAQAQAAQAAQAQAQ [GAL11] | 2.84 ± 0.092 | 3.02 ± 0.14 | 2.93 ± 0.066 | 3.04 ± 0.11 |
| GKISKPRFLNKQERSKQ [PRP28] | 1.9 ± 0.088 | 2.46 ± 0.13 | 3.33 ± 0.11 | 2.13 ± 0.088 |
| SMPLEQLIPIILRQRGP [SRB4] | 2.05 ± 0.057 | 2.31 ± 0.058 | 2.32 ± 0.083 | 1.91 ± 0.055 |
| LKWVAVVPDLGHLNGHT [SSN2] | 3.12 ± 0.07 | 3.13 ± 0.058 | 3.1 ± 0.048 | 3.16 ± 0.054 |
| EKAKSAGTQSSKFSKQQ [RPL24A] | 3.15 ± 0.064 | 3.23 ± 0.076 | 3.32 ± 0.047 | 3.12 ± 0.067 |
| VTPIIDGIVVKNAVVRS [ARP7] | 1.51 ± 0.074 | 1.92 ± 0.082 | 1.61 ± 0.13 | 1.74 ± 0.16 |
| ALDIVCSDFVKILNLEK [NUT1] | 2.7 ± 0.069 | 2.7 ± 0.07 | 2.35 ± 0.11 | 2.29 ± 0.099 |
| ETITTKRVPNPNFLGNC [SWP82] | 2.68 ± 0.054 | 2.58 ± 0.047 | 2.18 ± 0.05 | 2.32 ± 0.048 |
| EVNKSELYLTAELSEIW [SIR3] | – | 2.86 ± 0.29 | – | 3.24 ± 0.21 |
| GAAPYAAKLKQTENDLK [RPT1] | 2.06 ± 0.14 | 2.35 ± 0.17 | 2.31 ± 0.24 | 2.93 ± 0.19 |
| FPESIWKDFTVEIAFLF [YCG1] | 2.25 ± 0.06 | 2.43 ± 0.05 | 2.33 ± 0.067 | 2.29 ± 0.049 |
| VDKALIAEIKKTPLLKQ [RPL6A] | 2.64 ± 0.088 | 2.12 ± 0.28 | 1.92 ± 0.16 | – |
| KANEKKESDESKSAFSF [YJL041W/NSP1] | 2.95 ± 0.099 | 3.4 ± 0.07 | 3.18 ± 0.042 | 3.12 ± 0.043 |
| KELDQELIIDPLFKKAL [BRN1] | 3.23 ± 0.071 | 3.07 ± 0.073 | 3.13 ± 0.11 | 3.07 ± 0.052 |
| QYESQAPDGSASISLPN [SWP82] | 2.97 ± 0.055 | 2.61 ± 0.05 | 2.92 ± 0.038 | 2.83 ± 0.029 |
| VKNLSLMSCISVGTDPM [RPB2] | 1.88 ± 0.067 | 1.67 ± 0.061 | 2.48 ± 0.058 | 2.43 ± 0.063 |
| HEAKERIRQKEVTAGEA [SNF6] | 3 ± 0.18 | – | 2.67 ± 0.25 | 2.6 ± 0.074 |
| YEKAQKDLENAQVEMKS [SMC1] | 3.11 ± 0.11 | 3.29 ± 0.084 | 3.31 ± 0.052 | 3.3 ± 0.08 |
| RLGFFYNDQLYVKEKLE [RPN7] | 2.56 ± 0.17 | 3.13 ± 0.19 | – | 3.5 ± 0.087 |

| Sequence | protein stability index (doa10∆) | protein stability index (pdr5∆) | protein stability index (san1∆) | protein stability index (ubr1∆) |
| --- | --- | --- | --- | --- |
| INIQKKLEPKEIVRDIL [SIR4] | 3.05 ± 0.085 | 3.19 ± 0.12 | 2.85 ± 0.12 | 2.86 ± 0.11 |
| LFAESHDVLQKLNTLSE [YML103C/NUP188] | 2.77 ± 0.067 | 3.17 ± 0.072 | 3.06 ± 0.065 | 3 ± 0.05 |
| LLSKLLLKHPFKAIHGS [YCS4] | 2.37 ± 0.051 | 2.09 ± 0.05 | 1.67 ± 0.059 | 2.44 ± 0.035 |
| DCENFFNYVQECPAIPI [YJL039C/NUP192] | 2.49 ± 0.075 | 2.93 ± 0.064 | 3.23 ± 0.069 | 2.99 ± 0.05 |
| KSLGLKLPLSVINVSAQ [RPS17A] | 1.35 ± 0.052 | 1.36 ± 0.048 | 1.41 ± 0.13 | 1.37 ± 0.073 |
| NFASGDNNTASNMLGSN [RPB3] | 3 ± 0.12 | 2.98 ± 0.089 | 3 ± 0.12 | 3.24 ± 0.21 |
| AGADRLQQGMRGAWGKP [RPL10] | 3.41 ± 0.12 | 3.25 ± 0.13 | 2.95 ± 0.12 | 3.31 ± 0.086 |
| IPQDFENEVSDIDVTIV [ESC2] | 2.96 ± 0.096 | 2.34 ± 0.092 | 2.77 ± 0.11 | 2.42 ± 0.054 |
| IYAKQQEQLKQMDQQLQ [ARP7] | 1.76 ± 0.066 | 2.05 ± 0.079 | 2.2 ± 0.1 | 2.7 ± 0.072 |
| LATAHIYLSRFLIKASV [SSN8] | 1.23 ± 0.042 | 1.34 ± 0.051 | 1.31 ± 0.16 | 1.07 ± 0.055 |
| DVIATEPQGAVTHMDQI [SMD3] | 3.03 ± 0.073 | 2.83 ± 0.084 | 2.28 ± 0.11 | 2.47 ± 0.088 |
| DSIIDNIVKLCFVHRYK [IRR1] | 2.57 ± 0.11 | 1.95 ± 0.042 | 1.99 ± 0.11 | 2.08 ± 0.035 |
| LLIRKLPFQRLVREIAQ [HHT1] | 1.29 ± 0.085 | 1.48 ± 0.094 | 1.44 ± 0.16 | 1.73 ± 0.097 |
| LQLIIFLRTQFLKLYVL [RGR1] | 1.25 ± 0.1 | 1.4 ± 0.11 | 1.53 ± 0.12 | 1.41 ± 0.091 |
| ARDLFLKIYYKEEFSSD [RRI2] | – | 2.44 ± 0.15 | 2.03 ± 0.22 | 2.9 ± 0.1 |
| KNLISRINTLPQVQLPV [ECM29] | 2.85 ± 0.13 | 2.86 ± 0.1 | 2.9 ± 0.16 | 2.83 ± 0.17 |
| NMVRNNNNNTIDESMPD [GRR1] | 2.83 ± 0.057 | 3.12 ± 0.061 | 3.02 ± 0.074 | 3.12 ± 0.052 |
| SFRIKQKMAKAKKQNRP [RPL39] | 2.47 ± 0.17 | 2.78 ± 0.097 | 2.93 ± 0.091 | 2.93 ± 0.092 |
| IRKSETSGRYASYRICM [RPB5] | 2.57 ± 0.088 | 2.89 ± 0.063 | 2.9 ± 0.072 | 2.97 ± 0.086 |
| LSCQYDNTVRTSANGIV [RPO31] | 1.32 ± 0.19 | 1.26 ± 0.14 | – | – |
| LKLCLGDHSSVPVALKG [YMR129W/POM152] | 2.79 ± 0.086 | 2.91 ± 0.06 | 2.74 ± 0.1 | 3 ± 0.048 |
| SETREKELESIDVLLEQ [RPB4] | 3.04 ± 0.13 | 3.11 ± 0.096 | 2.86 ± 0.11 | 3 ± 0.095 |
| NLHAEGWPKLQLGPQTP [ECM29] | 2.43 ± 0.18 | 2.74 ± 0.18 | – | 2.9 ± 0.24 |
| VAAASKILSNLVYQYKG [PRE2] | 2.62 ± 0.088 | 2.5 ± 0.056 | 2.54 ± 0.078 | 2.49 ± 0.051 |
| GYIKNNKKIYQWNKLTS [POP6] | 2.93 ± 0.085 | 2.91 ± 0.089 | 2.89 ± 0.072 | 3.06 ± 0.081 |
| VSMITDHNALPQRCTFA [POP1] | 2.97 ± 0.18 | 3.01 ± 0.11 | 2.3 ± 0.18 | 2.73 ± 0.13 |
